Source: patent US9360484B2, “Anti-FcRH5 antibodies and immunoconjugates and methods of use” (Genentech, Inc., priority 2009, dated 2016)

B1: 13G9: murine monoclonal antibody binding human FcRH5 (antibody, V domains shown)
VH: EVQLVQSGPELKKPGETVKISCKASGYTFTNYGMNWVKQAPGKGLKWMGWVNTYTGEPTYTDDFKGRFAFSVETSASTVFLQINNLKNEDTATYFCARRSIPYYYAMDYWGQGTSLT
VL: DIVMTQSQKIMSTSVGDRVNVTCKASQNVGSNVAWYHQKPGQSPKALIYSASYRYSGVPDRFTGSGSGTDFTLTISNVQSEDLAEYFCQQYKTWTFGGGTKLEIKR
B2: 10A8: murine anti-FcRH5 monoclonal antibody, light chain variable domain SEQ ID NO: 18, heavy chain variable domain SEQ ID NO: 20 (antibody, listed as Mus musculus, V domains shown)
VH: EVQLVESGGGLVKPGGSLKISCAASGFTFSSYAVSWVRQTPEKRLEWVATISSGGSLTFYLDSVRGRFTISRDNAKNTLYLQMSSLRSEDTAMYYCARPIPDYYALDYWGQGTSVTVSS
VL: DIVMTQSHKFMSTSVRDRVSITCKASQDVSTAVAWYQQKPGQSPKLLIYSASYRYTGVPDRFTGSGSGTDFTFTISSVQAEDLAVYYCQQHFSSPRTFGGGTKVEIKR
modifications: Variable Domain of Heavy Chain of Humanized Antibody (mu10A8)
B3: hu10A8 v1: humanized 10A8 antibody, variable domains SEQ ID NO: 19 and SEQ ID NO: 21 (antibody, V domains shown)
VH: EVQLVESGGGLVQPGGSLRLSCAASGFTFSSYAVSWVRQAPGKGLEWVATISSGGSLTFYLDSVRGRFTISRDNSKNTLYLQMNSLRAEDTAVYYCARPIPDYYALDYWGQGTLVTVSS
VL: DIQMTQSPSSLSASVGDRVTITCKASQDVSTAVAWYQQKPGKAPKLLIYSASYRYTGVPSRFSGSGSGTDFTLTISSLQPEDFATYYCQQHFSSPRTFGQGTKVEIKR

Tests used:
human FcRH5 [1] = target: T1, human FcRH5 (Homo sapiens, UniProt Q96RD9); test: Affinity determination (Biacore analysis) of murine anti-FcRH5 IgGs; details: murine IgG captured on chip, 25° C., 1:1 Langmuir binding model; read-out: Affinity (Biacore) to Hu antigen
T1 construct: vectors that expresses the His-tagged extra-cellular domain (ECDs) of the FcRH5/IRTA2 into CHO cells; His tag (HIS6); made in house; host or cells: CHO cells (transient transfection)
T1 sequence (Q96RD9 16-851 limits assumed): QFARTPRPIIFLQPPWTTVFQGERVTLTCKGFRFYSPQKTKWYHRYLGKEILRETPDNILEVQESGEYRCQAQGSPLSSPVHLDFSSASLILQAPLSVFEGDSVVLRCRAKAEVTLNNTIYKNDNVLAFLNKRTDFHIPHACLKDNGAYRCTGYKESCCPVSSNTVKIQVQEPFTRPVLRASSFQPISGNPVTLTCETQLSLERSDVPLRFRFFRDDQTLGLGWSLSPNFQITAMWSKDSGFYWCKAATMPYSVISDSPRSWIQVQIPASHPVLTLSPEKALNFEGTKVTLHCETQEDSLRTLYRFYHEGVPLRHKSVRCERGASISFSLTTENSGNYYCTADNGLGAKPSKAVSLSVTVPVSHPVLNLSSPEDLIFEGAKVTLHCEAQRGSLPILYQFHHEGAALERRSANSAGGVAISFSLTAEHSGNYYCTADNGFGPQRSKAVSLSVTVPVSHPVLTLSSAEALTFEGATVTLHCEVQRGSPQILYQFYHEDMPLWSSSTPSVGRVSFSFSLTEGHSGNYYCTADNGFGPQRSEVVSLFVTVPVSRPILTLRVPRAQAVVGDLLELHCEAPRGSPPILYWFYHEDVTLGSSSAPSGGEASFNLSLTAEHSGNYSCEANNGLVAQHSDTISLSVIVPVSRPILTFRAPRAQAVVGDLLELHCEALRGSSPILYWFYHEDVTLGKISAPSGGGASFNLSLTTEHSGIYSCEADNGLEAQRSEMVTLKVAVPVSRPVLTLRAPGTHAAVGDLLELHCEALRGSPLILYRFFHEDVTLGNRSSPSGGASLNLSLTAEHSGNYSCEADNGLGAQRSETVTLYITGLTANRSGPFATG
Procedure: The FcRH-binding affinities of IgGs were calculated from association and dissociation rate constants measured using a Biacore 2000 surface plasmon resonance system (BIAcore, Inc.). A biosensor chip was activated for covalent coupling of either anti-murine IgG (BR-1008-338) using N-ethyl-N′-(3-dimethyaminopropyl)-carbodiimide hydrochloride (EDC) and N-hydroxysuccinimide (NHS) according to the supplier's instruction (BIAcore, Inc.). Briefly, for each cycle of kinetic analysis, 5 ul of 100 nM IgG was captured on the chip, two-fold serial dilution of various FcRHs were injected at a flow rate of 20 ul/min for 150 sec. Antigen dissociation was monitored for 180 sec before regeneration. Equilibrium dissociation constants at 25° C. were calculated by fitting the data with a 1:1 Langmuir binding model. Running buffer was PBS with 0.05% Tween −20. All the antibodies bound antigen with sufficient affinity to be used as a therapeutic.

cynomolgus FcRH5 = test: Cyno cross-reactivity by FACS on stably transfected cells (SVT2 cells expressing cynoFcRH5); format: binding, cynomolgus monkey; details: 1.0, 0.1 or 0.01 μg antibody per million SVT2 cells stably expressing cynoFcRH5
Procedure: For additional FACS analysis of FcRH5 antibodies, 1.0 μg, 0.1 μg or 0.01 μg of antibody was titrated per million cells of BJAB cells stably expressing huFcRH5 and SVT2 cells stably expressing cynoFcRH5. Briefly, approximately 10^6 cells in 100 μl were incubated with varying amounts (1.0 ug, 01. ug or 0.01 ug) of murine Ab mu1H4, mu6H1, mu7D11, mu9E2, mu10A8, mu10F5, or mu13G9 per million cells of BJAB cells stably expressing huFcRH5 and SVT2 cells stably expressing cynoFcRH5. Incubation with 1.0 ug/10^6 cells of the appropriate Mu IgG isotype control was used as a negative control. PE conjugated Rat anti-MuIgG1 or Rat anti-MuIgG2a+b was used as the secondary detection antibody.

human FcRH1-6 = test: FACS cross-reactivity analysis on SVT2 cells stably expressing gD tagged huFcRH1-6; format: binding; details: 1.0 ug Ab (or 100 μl hybridoma supernatant) per 10^6 SVT2 cells expressing gD tagged huFcRH1-6
Procedure: To determine the cross-reactivity of FcRH5 antibodies, binding of IgG variants to SVT2 cells, expressing human FcRH1-6 were analyzed using FACS analysis.
Briefly, approximately 10^6 cells of SVT2 cells stably expressing gD tagged huFcRH1-6 in 100 μl were incubated with 1.0 ug of murine or chimeric Ab [Mu anti-gD (positive control), Mu anti-FcRH5 (1H4) (“mu1H4”), Mu anti-FcRH5 (4D10) (“mu4D10”), Mu anti-FcRH5 (6H1) (“mu6H1”), Mu anti-FcRH5 (7D11) (“mu7D11”), Ch anti-FcRH5 (7D11) (“ch7D11”), Mu anti-FcRH5 (8116) (“mu8H6”), Mu anti-FcRH5 (9E2) (“mu9E2”), or Mu anti-FcRH5 (13G9) (“mu13G9”)]. Incubation of SVT2 cells stably expressing the empty vector was incubated with the same antibodies and used as a negative control. PE conjugated Rat anti-MuIgG1, Rat anti-MuIgG2a+b, or Mu anti-HuIgG was used as the secondary detection antibody.
To further determine the cross-reactivity of FcRH5 antibodies, binding of IgG variant supernatants to SVT2 cells, expressing human FcRH1-6 were analyzed using FACS analysis.
Briefly, approximately 10^6 cells of SVT2 cells stably expressing gD tagged huFcRH1-6 were incubated with 1.0 μg purified Ms anti-gD antibody or 100 μl (concentration unknown) of murine Ab hybridoma supernatant (Mu anti-FcRH5 (10A8) (“mu10A8”), Mu anti-FcRH5 (10F5) (“mu10F5”)). […]

human FcRH5 [2] = target: T2, human FcRH5 (Homo sapiens, UniProt Q96RD9, G418D/L733P/S890P/V466I/Y267H); test: Affinity determination (Scatchard analysis) on cells expressing human FcRH5; format: binding; details: by FACS and Scatchard analysis
T2 construct: expressed in transfected cells; host or cells: OPM2 multiple myeloma cells
T2 sequence (Q96RD9 16-977 Y267H/G418D/V466I/L733P/S890P): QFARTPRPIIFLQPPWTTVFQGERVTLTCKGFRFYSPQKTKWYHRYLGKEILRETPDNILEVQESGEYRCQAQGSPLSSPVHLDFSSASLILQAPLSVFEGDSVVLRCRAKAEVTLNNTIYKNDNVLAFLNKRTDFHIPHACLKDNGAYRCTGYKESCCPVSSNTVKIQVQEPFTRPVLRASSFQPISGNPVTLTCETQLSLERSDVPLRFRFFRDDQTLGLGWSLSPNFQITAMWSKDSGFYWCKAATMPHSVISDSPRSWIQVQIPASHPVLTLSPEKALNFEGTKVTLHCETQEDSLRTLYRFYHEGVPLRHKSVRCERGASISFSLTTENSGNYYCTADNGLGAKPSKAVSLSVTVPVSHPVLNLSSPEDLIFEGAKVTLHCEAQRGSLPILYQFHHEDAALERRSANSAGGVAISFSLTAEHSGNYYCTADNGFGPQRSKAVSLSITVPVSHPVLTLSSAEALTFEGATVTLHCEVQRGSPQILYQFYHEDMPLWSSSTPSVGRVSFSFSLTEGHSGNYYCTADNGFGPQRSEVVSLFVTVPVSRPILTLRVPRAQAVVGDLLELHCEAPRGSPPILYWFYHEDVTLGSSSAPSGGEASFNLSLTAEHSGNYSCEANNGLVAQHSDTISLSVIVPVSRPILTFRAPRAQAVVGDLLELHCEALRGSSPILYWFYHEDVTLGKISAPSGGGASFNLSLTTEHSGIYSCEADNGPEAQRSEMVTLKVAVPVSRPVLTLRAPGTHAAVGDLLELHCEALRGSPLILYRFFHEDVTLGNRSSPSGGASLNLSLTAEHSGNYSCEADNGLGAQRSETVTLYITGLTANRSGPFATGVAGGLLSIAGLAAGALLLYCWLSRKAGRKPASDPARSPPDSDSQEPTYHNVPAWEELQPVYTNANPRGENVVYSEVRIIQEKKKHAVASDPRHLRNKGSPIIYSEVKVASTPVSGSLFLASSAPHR
Procedure: To further determine binding of the FcRH5 murine antibodies and IgG clones, binding of iodinated IgG variants to OPM2 cells expressing human FcRH5 and SVT2 cells expressing cynomologous FcRH5, Scatchard analysis was performed.
After a four hour incubation at 4° C., cells were washed and cell pellet counts were read by a gamma counter (1470 WIZARD Automatic Gamma Counter; Perkin Elmer, Walthem, Mass.). All points were done in triplicate and counted for 10 minutes. The average CPM was used for Kd calculation using the New Ligand (Genentech, South San Francisco, Calif.) program.

[3] = system: OPM2.CMV.PD.FcRH5.5P.2 cells; test: In vitro cell proliferation assay (CellTiter-Glo Luminescent Cell Viability Assay); format: cell-based, human; details: OPM2.CMV.PS.FcRH5.5P.2 cells, 3 days incubation
Source text: The homogeneous “add-mix-measure” format results in cell lysis and generation of a luminescent signal proportional to the amount of ATP present. The substrate, Beetle Luciferin, is oxidatively decarboxylated by recombinant firefly luciferase with concomitant conversion of ATP to AMP and generation of photons. Viable cells are reflected in relative luminescence units (RLU). Data can be recorded by luminometer or CCD camera imaging device. […] Alternatively, photons from luminescence can be counted in a scintillation counter in the presence of a scintillant.
3. The plates were equilibrated to room temperature for approximately 30 minutes.
5. The contents were mixed for 2 minutes on an orbital shaker to induce cell lysis.
6. The plate was incubated at room temperature for 10 minutes to stabilize the luminescence signal.

Chain of cynomolgus FcRH5 (as listed by the source): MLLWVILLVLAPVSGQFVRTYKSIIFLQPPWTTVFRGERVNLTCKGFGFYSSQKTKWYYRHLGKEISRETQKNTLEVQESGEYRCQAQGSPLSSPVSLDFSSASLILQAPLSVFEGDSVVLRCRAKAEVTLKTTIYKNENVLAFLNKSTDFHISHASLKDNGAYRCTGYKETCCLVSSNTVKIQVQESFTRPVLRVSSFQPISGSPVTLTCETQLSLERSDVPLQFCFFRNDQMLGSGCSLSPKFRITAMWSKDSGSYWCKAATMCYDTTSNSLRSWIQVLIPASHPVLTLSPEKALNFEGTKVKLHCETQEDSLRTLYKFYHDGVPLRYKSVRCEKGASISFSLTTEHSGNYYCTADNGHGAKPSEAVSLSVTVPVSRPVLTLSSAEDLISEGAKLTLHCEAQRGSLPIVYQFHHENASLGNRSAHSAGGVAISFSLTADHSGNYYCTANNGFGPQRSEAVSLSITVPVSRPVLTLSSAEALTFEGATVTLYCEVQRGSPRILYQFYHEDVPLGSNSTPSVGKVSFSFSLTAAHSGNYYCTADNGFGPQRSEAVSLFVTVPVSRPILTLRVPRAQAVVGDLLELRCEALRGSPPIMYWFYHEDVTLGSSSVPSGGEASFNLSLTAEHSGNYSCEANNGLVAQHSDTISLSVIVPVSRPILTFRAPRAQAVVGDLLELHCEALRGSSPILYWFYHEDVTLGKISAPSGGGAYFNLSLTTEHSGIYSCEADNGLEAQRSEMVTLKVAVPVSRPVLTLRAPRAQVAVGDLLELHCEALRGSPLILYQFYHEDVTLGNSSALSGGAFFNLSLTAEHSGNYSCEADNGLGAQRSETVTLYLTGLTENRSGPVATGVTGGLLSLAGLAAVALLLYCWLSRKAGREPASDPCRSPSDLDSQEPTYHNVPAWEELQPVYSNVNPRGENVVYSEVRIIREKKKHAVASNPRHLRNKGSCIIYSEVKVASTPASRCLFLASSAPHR

Row | Molecule | Kd (human FcRH5 [1]) [µM] | cross reaction with cynomolgus FcRH5 by FACS analysis (cynomolgus FcRH5) | specificity of binding among huFcRH1-6 by FACS (human FcRH1-6) | relative binding affinity of humanized version 1 and the chimera (human FcRH5 [2]) | in vitro cell growth inhibition (in words) [3]
1 | B1 | 0.019 | cross react with cynomolgus FcRH5 |  |  | 
2 | B2 |  | cross react with cynomolgus FcRH5 | specifically bind FcRH5 |  | 
3 | B3 |  |  |  | equivalent to the chimera | no in vitro cell growth inhibition
